This is an account of results in US20180148477A1 (published 2018).

Bridge positions count the residues as written; N and C are the ends. Square brackets hold non-standard residues; d marks the D form. Ends that are not written are not given here. 1Nal = N[C@@H](Cc1cccc2ccccc12)C(=O)O; 2Nal = N[C@@H](Cc1ccc2ccccc2c1)C(=O)O; d1Nal = N[C@H](Cc1cccc2ccccc12)C(=O)O; d2Nal = N[C@H](Cc1ccc2ccccc2c1)C(=O)O; NMeR = CN[C@@H](CCCNC(=N)N)C(=O)O; hPhe = N[C@@H](CCc1ccccc1)C(=O)O; Aic = NC1(C(=O)O)Cc2ccccc2C1; NMeK = CN[C@@H](CCCCN)C(=O)O; Pen = CC(C)(S)[C@H](N)C(=O)O; dNMeK = CN[C@H](CCCCN)C(=O)O; Dab = NCC[C@H](N)C(=O)O; Dap = NC[C@H](N)C(=O)O

B1: SEQ ID NO: 143 (peptide)
peptide: [Pen][NMeR]SDTL[Pen][2Nal]E
modifications: disulfide 1-7 (inferred); not fully specified (bridges); printed as Cyclo-[Pen-N-Me-R-S-D-T-L-Pen-2-Nal-E], Pen-Pen disulfide
B2: SEQ ID NO: 9 (peptide)
peptide: Ac-[Pen][NMeR]SDTL[Pen][2Nal][dE][dK]-NH2
modifications: disulfide 1-7
SMILES: CC(=O)N[C@@H]1C(=O)N(C)[C@@H](CCCNC(=N)N)C(=O)N[C@@H](CO)C(=O)N[C@@H](CC(=O)O)C(=O)N[C@@H]([C@@H](C)O)C(=O)N[C@@H](CC(C)C)C(=O)N[C@H](C(=O)N[C@@H](Cc2ccc3ccccc3c2)C(=O)N[C@H](CCC(=O)O)C(=O)N[C@H](CCCCN)C(N)=O)C(C)(C)SSC1(C)C
B3: SEQ ID NO: 8 (peptide)
peptide: Ac-[Pen][NMeR]SDTL[Pen][1Nal][dE][dK]-NH2
modifications: disulfide 1-7
SMILES: CC(=O)N[C@@H]1C(=O)N(C)[C@@H](CCCNC(=N)N)C(=O)N[C@@H](CO)C(=O)N[C@@H](CC(=O)O)C(=O)N[C@@H]([C@@H](C)O)C(=O)N[C@@H](CC(C)C)C(=O)N[C@H](C(=O)N[C@@H](Cc2cccc3ccccc23)C(=O)N[C@H](CCC(=O)O)C(=O)N[C@H](CCCCN)C(N)=O)C(C)(C)SSC1(C)C
B4: SEQ ID NO: 50 (peptide)
peptide: Ac-[Pen][NMeR]SDTL[Pen][2Nal][hPhe][dK]-NH2
modifications: disulfide 1-7
SMILES: CC(=O)N[C@@H]1C(=O)N(C)[C@@H](CCCNC(=N)N)C(=O)N[C@@H](CO)C(=O)N[C@@H](CC(=O)O)C(=O)N[C@@H]([C@@H](C)O)C(=O)N[C@@H](CC(C)C)C(=O)N[C@H](C(=O)N[C@@H](Cc2ccc3ccccc3c2)C(=O)N[C@@H](CCc2ccccc2)C(=O)N[C@H](CCCCN)C(N)=O)C(C)(C)SSC1(C)C
B5: SEQ ID NO: 88 (peptide)
peptide: Ac-[Pen][NMeR]SDTL[Pen][2Nal][dK]-NH2
modifications: disulfide 1-7
SMILES: CC(=O)N[C@@H]1C(=O)N(C)[C@@H](CCCNC(=N)N)C(=O)N[C@@H](CO)C(=O)N[C@@H](CC(=O)O)C(=O)N[C@@H]([C@@H](C)O)C(=O)N[C@@H](CC(C)C)C(=O)N[C@H](C(=O)N[C@@H](Cc2ccc3ccccc3c2)C(=O)N[C@H](CCCCN)C(N)=O)C(C)(C)SSC1(C)C
B6: SEQ ID NO: 10 (peptide)
peptide: Ac-[Pen][NMeR]SDTL[Pen][d1Nal]E[dK]-NH2
modifications: disulfide 1-7
SMILES: CC(=O)N[C@@H]1C(=O)N(C)[C@@H](CCCNC(=N)N)C(=O)N[C@@H](CO)C(=O)N[C@@H](CC(=O)O)C(=O)N[C@@H]([C@@H](C)O)C(=O)N[C@@H](CC(C)C)C(=O)N[C@H](C(=O)N[C@H](Cc2cccc3ccccc23)C(=O)N[C@@H](CCC(=O)O)C(=O)N[C@H](CCCCN)C(N)=O)C(C)(C)SSC1(C)C
B7: SEQ ID NO: 51 (peptide)
peptide: Ac-[Pen][NMeR]SDTL[Pen]W[Aic][dK]-NH2
modifications: disulfide 1-7
SMILES: CC(=O)N[C@@H]1C(=O)N(C)[C@@H](CCCNC(=N)N)C(=O)N[C@@H](CO)C(=O)N[C@@H](CC(=O)O)C(=O)N[C@@H]([C@@H](C)O)C(=O)N[C@@H](CC(C)C)C(=O)N[C@H](C(=O)N[C@@H](Cc2c[nH]c3ccccc23)C(=O)NC2(C(=O)N[C@H](CCCCN)C(N)=O)Cc3ccccc3C2)C(C)(C)SSC1(C)C
B8: SEQ ID NO: 11 (peptide)
peptide: Ac-[Pen][NMeR]SDTL[Pen][d2Nal]E[dK]-NH2
modifications: disulfide 1-7
SMILES: CC(=O)N[C@@H]1C(=O)N(C)[C@@H](CCCNC(=N)N)C(=O)N[C@@H](CO)C(=O)N[C@@H](CC(=O)O)C(=O)N[C@@H]([C@@H](C)O)C(=O)N[C@@H](CC(C)C)C(=O)N[C@H](C(=O)N[C@H](Cc2ccc3ccccc3c2)C(=O)N[C@@H](CCC(=O)O)C(=O)N[C@H](CCCCN)C(N)=O)C(C)(C)SSC1(C)C
B9: SEQ ID NO: 61 (peptide)
peptide: Ac-[Pen][NMeR]SDTL[Pen]WE[Dab]-NH2
modifications: disulfide 1-7
SMILES: CC(=O)N[C@@H]1C(=O)N(C)[C@@H](CCCNC(=N)N)C(=O)N[C@@H](CO)C(=O)N[C@@H](CC(=O)O)C(=O)N[C@@H]([C@@H](C)O)C(=O)N[C@@H](CC(C)C)C(=O)N[C@H](C(=O)N[C@@H](Cc2c[nH]c3ccccc23)C(=O)N[C@@H](CCC(=O)O)C(=O)N[C@@H](CCN)C(N)=O)C(C)(C)SSC1(C)C
B10: SEQ ID NO: 55 (peptide)
peptide: Ac-[Pen][NMeR]SDTL[Pen]W[dE][Dap]-NH2
modifications: disulfide 1-7
SMILES: CC(=O)N[C@@H]1C(=O)N(C)[C@@H](CCCNC(=N)N)C(=O)N[C@@H](CO)C(=O)N[C@@H](CC(=O)O)C(=O)N[C@@H]([C@@H](C)O)C(=O)N[C@@H](CC(C)C)C(=O)N[C@H](C(=O)N[C@@H](Cc2c[nH]c3ccccc23)C(=O)N[C@H](CCC(=O)O)C(=O)N[C@@H](CN)C(N)=O)C(C)(C)SSC1(C)C
B11: SEQ ID NO: 56 (peptide)
peptide: Ac-[Pen][NMeR]SDTL[Pen]W[dE][Dab]-NH2
modifications: disulfide 1-7
SMILES: CC(=O)N[C@@H]1C(=O)N(C)[C@@H](CCCNC(=N)N)C(=O)N[C@@H](CO)C(=O)N[C@@H](CC(=O)O)C(=O)N[C@@H]([C@@H](C)O)C(=O)N[C@@H](CC(C)C)C(=O)N[C@H](C(=O)N[C@@H](Cc2c[nH]c3ccccc23)C(=O)N[C@H](CCC(=O)O)C(=O)N[C@@H](CCN)C(N)=O)C(C)(C)SSC1(C)C
B12: SEQ ID NO: 59 (peptide)
peptide: Ac-[Pen][NMeR]SDTL[Pen]WE[Dap]-NH2
modifications: disulfide 1-7
SMILES: CC(=O)N[C@@H]1C(=O)N(C)[C@@H](CCCNC(=N)N)C(=O)N[C@@H](CO)C(=O)N[C@@H](CC(=O)O)C(=O)N[C@@H]([C@@H](C)O)C(=O)N[C@@H](CC(C)C)C(=O)N[C@H](C(=O)N[C@@H](Cc2c[nH]c3ccccc23)C(=O)N[C@@H](CCC(=O)O)C(=O)N[C@@H](CN)C(N)=O)C(C)(C)SSC1(C)C

The target of one test is rh integrin α4β7 (R&D Systems #5397-A30) (human) (UniProt P13612). The test can be described thus: competition ELISA vs MAdCAM-1. On the technique in general: In an ELISA, binding on a coated surface is turned into a signal by an enzyme label.
What is called IC50 is the concentration needed to halve the response being measured. Higher therefore signals weaker potency in that assay. Turning to Ac-[Pen][NMeR]SDTL[Pen][1Nal][dE][dNMeK]-NH2 (disulfide 1-7 (inferred)) [SEQ ID NO: 12], the IC50 was over 25 nM.

The molecule Ac-[Pen][NMeR]SDTL[Pen][2Nal]E[NMeK]-NH2 (disulfide 1-7 (inferred); also: homodimer via DIG) [SEQ ID NO: 138] registered a 50% inhibitory concentration (IC50) of over 10 nM.

Take Ac-[Pen][NMeR]SDTL[Pen][2Nal][dE][dNMeK]-NH2 (disulfide 1-7 (inferred)) [SEQ ID NO: 13]: the IC50 is over 10 nM.

Take Ac-[Pen][NMeR]SDTL[Pen][2Nal][dE][dK]-NH2 (disulfide 1-7; also: dimer via DIG) [SEQ ID NO: 29]: the IC50 was under 10 nM.

B1 gave a half-inhibitory concentration (IC50) of 250 nM. This counts as sub-micromolar.

Molecule B2 came in with an IC50 of over 10 nM.

In turn, B3 displayed an IC50 of over 25 nM.

B4 returned an IC50 of over 10 nM.

B5: the IC50 is over 10 nM.

Molecule B6 displayed an IC50 of over 10 nM.

As for B7, the half-maximal inhibitory concentration (IC50) is over 25 nM.

With Ac-[Pen][NMeR]SDTL[Pen][2Nal]E[dNMeK]-NH2 (disulfide 1-7 (inferred)) [SEQ ID NO: 15], the 50% inhibitory concentration (IC50) is under 10 nM.

Consider B8, for which the IC50 was over 25 nM.

A further test has as its target human α4β7 integrin on cells (human) (UniProt P13612). The test can be described thus: RPMI8866 adhesion to MAdCAM-1.
Molecule Ac-[Pen][NMeR]SDTL[Pen][2Nal][dE][dNMeK]-NH2 (disulfide 1-7; also: dimer via DIG) [SEQ ID NO: 39] registered an IC50 of over 10 nM.

Ac-[Pen][NMeR]SDTL[Pen][d2Nal]E[dK]-NH2 (disulfide 1-7; also: dimer via DIG) [SEQ ID NO: 35] registered a 50% inhibitory concentration (IC50) of over 100 nM.

B9 gave an IC50 of over 1000 nM.

The molecule Ac-[Pen][NMeR]SDTL[Pen][2Nal]E[NMeK]-NH2 (disulfide 1-7 (inferred); also: homodimer via DIG) [SEQ ID NO: 138] gave an IC50 of over 10 nM.

Molecule B10 gave a half-inhibitory concentration (IC50) of over 100 nM.

In turn, Ac-[Pen][NMeR]SDTL[Pen][2Nal][dE][dNMeK]-NH2 (disulfide 1-7 (inferred)) [SEQ ID NO: 13] had an IC50 of over 100 nM.

Turning to Ac-[Pen][NMeR]SDTL[Pen]W[dE][Dap] (disulfide 1-7; also: C-terminus written Dap-Ac, acetyl place unclear) [SEQ ID NO: 63], the IC50 was over 1000 nM.

In the case of Ac-[Pen][NMeR]SDTL[Pen][2Nal][dE][dK]-NH2 (disulfide 1-7; also: dimer via DIG) [SEQ ID NO: 29], the IC50 was over 10 nM.

Molecule B1 registered an IC50 of over 10000 nM.

B2 showed an IC50 of over 100 nM.

On to Ac-[Pen][NMeR]SDTL[Pen]WE[Dap] (disulfide 1-7; also: C-terminus written Dap-Ac, acetyl place unclear) [SEQ ID NO: 60], for which the IC50 is over 1000 nM.

Turning to Ac-[Pen][NMeR]SDTL[Pen][2Nal][dY][dK]-NH2 (disulfide 1-7; also: dimer via DIG) [SEQ ID NO: 27], the IC50 is over 25 nM.

Ac-[Pen][NMeR]SDTL[Pen]WE[Dab] (disulfide 1-7; also: C-terminus written Dab-Ac, acetyl place unclear) [SEQ ID NO: 62] displayed an IC50 of over 1000 nM.

In the case of Ac-[Pen][NMeR]SDTL[Pen]W[dE][Dab] (disulfide 1-7; also: C-terminus written Dab-Ac, acetyl place unclear) [SEQ ID NO: 64], the IC50 is over 1000 nM.

The molecule B11 registered an IC50 of over 500 nM.

For B12, the IC50 was over 10000 nM.

Ac-[Pen][NMeR]SDTL[Pen][d1Nal]E[dK]-NH2 (disulfide 1-7; also: dimer via DIG) [SEQ ID NO: 34]: the IC50 is over 25 nM.
